Article PMC10827754, “The crystal structure of SUN1-KASH6 reveals an asymmetric LINC complex architecture compatible with nuclear membrane insertion” (Communications Biology, 2024)
“And” between values parts separate entries of the source, which are not always exact repeats. Equal values may be shown once.

Tests used:
[1] = molecular target: SUN domain of human SUN1 (amino-acids 616-812) (human); test: SEC-MALS; untreated (native) co-purified complex; 8-13 mg/ml loaded on Superdex 200 Increase 10/300 GL in 20 mM Hepes pH 7.5, 150 mM KCl, 2 mM DTT
[2] = molecular target: SUN domain of human SUN1 (amino-acids 616-812) (human); test: SEC-MALS; co-purified complex treated overnight in 20 mM sodium acetate pH 5.0, 150 mM KCl, 10% glycerol, 2 mM DTT, then analysed in 20 mM Hepes pH 7.5, 150 mM KCl, 2 mM DTT
[3] = molecular target: SUN domain of human SUN1 (amino-acids 616-812) (human); test: crystal structure; co-expressed and co-purified SUN1-KASH6 at 12 mg/ml; sitting drops, 20 °C; MES pH 6.0 (1.7 Å), Bis Tris pH 5.5 (2.3 Å), sodium citrate pH 5.5 (2.0 Å)
[4] = molecular target: SUN domain of human SUN1 (amino-acids 616-812) (human); test: as above; remark: listed apart in the source
[5] = molecular target: the molecule itself; test: as above
[6] = molecular target: SUN domain of human SUN1 (amino-acids 616-812) (human); test: SEC-MALS; untreated (native) co-purified complex; 8-13 mg/ml loaded on Superdex 200 Increase 10/300 GL in 20 mM Hepes pH 7.5, 150 mM KCl, 2 mM DTT; remark: listed apart in the source

SUN domain of human SUN1 (amino-acids 616-812) (domain or fragment)
stoichiometry N [1]: 6
stoichiometry N [2]: 9 and 6
stoichiometry N [3]: 9

B1: KASH6 core H539Q (human JAW1/LRMP amino-acids 531-555) (peptide)
chain: EDSWTSLEQILWPFTRLRHNGPPPV
stoichiometry N (KASH6 per SUN1) [2]: 1

B2: KASH6 core H549Y (human JAW1/LRMP amino-acids 531-555) (peptide)
chain: EDSWTSLEHILWPFTRLRYNGPPPV
percent (by mass) as 6:6 complex [2]: 55 % (by mass)
percent (by mass) as 9:6 complex [2]: 45 % (by mass)
stoichiometry N (KASH6 per SUN1) [2]: 0.67 and 1

B3: KASH domain of human JAW1/LRMP (KASH6, amino-acids 515-555) (peptide, UniProt Q12912 515-555, looked up)
chain: TGQLFQKSVDAAPTQQEDSWTSLEHILWPFTRLRHNGPPPV
notes: JAW1/LRMP (lymphoid restricted membrane protein), human, KASH domain, amino-acids 515-555; KASH6α, KASH6β and KASH6γ are the same peptide in three conformations or sites of the crystal structure; also called KASH6α; KASH6β; not shown: His6, N-terminal, cleaved; MBP, N-terminal, cleaved
stoichiometry N (KASH6 per SUN1) [4]: 0.67
binding result [5]: binds
stoichiometry N (KASH6 per SUN1) [2]: 0.67 and 1
stoichiometry N (KASH6 per SUN1) [6]: 1

B4: KASH6 core H539K (human JAW1/LRMP amino-acids 531-555) (peptide)
chain: EDSWTSLEKILWPFTRLRHNGPPPV
percent (by mass) as 6:6 complex [6]: 40 % (by mass)
percent (by mass) as 9:6 complex [6]: 60 % (by mass)
stoichiometry N (KASH6 per SUN1) [6]: 1 and 0.67

B5: KASH6 core (human JAW1/LRMP amino-acids 531-555) (peptide)
chain: EDSWTSLEHILWPFTRLRHNGPPPV
percent (by mass) as 6:6 complex [2]: 15 % (by mass)
percent (by mass) as 9:6 complex [2]: 85 % (by mass)
stoichiometry N (KASH6 per SUN1) [2]: 0.67
stoichiometry N (KASH6 per SUN1) [6]: 1

B6: KASH6 core W534A (human JAW1/LRMP amino-acids 531-555) (peptide)
chain: EDSATSLEHILWPFTRLRHNGPPPV
stoichiometry N (KASH6 per SUN1) [2]: 1
